Reference: paper PMC5641545, “Structure and Interactions of the TPR Domain of Sgt2 with Yeast Chaperones and Ybr137wp” (Frontiers in Molecular Biosciences, 2017)

Key:
[1] = molecular target: T1, Sgt2_TPR (residues 93–229) (Saccharomyces cerevisiae, UniProt Q12118); test: ITC binding of peptides to Sgt2_TPR (93–229); design: species or system S. cerevisiae; settings: 25°C, pH 6.0, from ΔG = −RT·lnKb and ΔG = ΔH − TΔS
T1 construct: were added to Sgt2_TPR (residues 93–229) at 50 μM in the reaction cell; thioredoxin A (N, cleaved yes); hexahistidine tag (N, cleaved yes); made in house; host or cells: E. coli BL21 (DE3)
T1 sequence (Q12118 93-229): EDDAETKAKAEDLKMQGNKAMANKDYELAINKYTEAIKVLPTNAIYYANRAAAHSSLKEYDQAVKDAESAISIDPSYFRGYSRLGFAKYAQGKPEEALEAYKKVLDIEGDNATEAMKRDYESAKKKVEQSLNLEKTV

TPR domains = settings: ref Scheufler et al., 2000; cited from earlier work
Description: The orientation of Hsp peptides in TPR structures varies between proteins. The conserved clamp mode of interactions is consistent, but there are some differences observed for the N-terminal parts of the peptides, which is not surprising given that the carboxylate clamp is the fixed point of attachment. The PTVEEVD peptide adopts an extended conformation within the Sgt2_TPR groove similar to that observed in the structure of the HOP TPR1/GPTIEEVD complex (Scheufler et al., [2000]). In contrast, structures of GPTIEEVD/Chip TPR [PDB: 3Q49 (Wang L. et al., [2011]) and PDB: 4KBQ Zhang et al., [2005 ...

[2] = molecular target: Ybr137wp (Saccharomyces cerevisiae) (UniProt P38276); test: ITC; settings: cited from earlier work
Sgt2_TPR (93–229) = molecular target: T2, Sgt2_TPR (93–229) (S. cerevisiae, UniProt Q12118 93-229); test: ITC; 20 injections of 2 uL of 500 uM peptide into 50 uM Sgt2_TPR (93-229) in the cell; 10 mM potassium phosphate pH 6.0, 100 mM NaCl, 250 uM TCEP, 25°C; settings: both partners purified
T2 construct: Small glutamine-rich tetratricopeptide repeat-containing protein 2 (Sgt2), S. cerevisiae, TPR domain, residues 93-229; 15N-labelled for the NMR titrations; Cloned from synthetic cDNA into the BamHI/XhoI sites of a modified pET28; also called TPR domain of Sgt2; longer construct of Sgt2_TPR; not shown: thioredoxin A, N-terminal, cleaved; His6, N-terminal, cleaved
T2 sequence (looked up): T1 sequence (Q12118 93-229)

Sequence of Ybr137wp (Saccharomyces cerevisiae) (P38276 whole entry): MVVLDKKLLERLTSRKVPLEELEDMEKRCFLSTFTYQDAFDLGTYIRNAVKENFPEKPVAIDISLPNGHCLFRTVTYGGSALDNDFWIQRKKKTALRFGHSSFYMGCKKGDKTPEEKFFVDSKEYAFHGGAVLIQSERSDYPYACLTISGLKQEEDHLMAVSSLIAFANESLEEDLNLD

MEEVD [peptide corresponding to C-terminal of Hsp82; residues 705–709]
ΔS (reaction entropy) by ITC [1]: 10.9 cal/mol·deg

EEVD
Fold reduction of affinity on trimming the peptide sequence to EEVD only (TPR domains): at least 10 times

Sgt2 TPR (from UniProt Q12118)
Kd [2]: 1380 nM

B1: MEEVD peptide (C-terminus of Hsp82) (peptide)
peptide: MEEVD
notes: Hsp82 (yeast Hsp90), C-terminal residues 705-709; the abstract and discussion call the parent Hsc82; also called C-terminal fragment of Hsp82; Hsc82 C-terminal peptide; source: synthetic peptide, bought: Alpha BioScience (Birmingham, UK)
Kd (Sgt2_TPR (93–229)): 2950 ± 310 nM | dH (Sgt2_TPR (93–229)): -4.51 ± 0.03 kcal/mol

B2: SLEEDLNLD peptide (C-terminus of Ybr137wp) (peptide)
peptide: SLEEDLNLD
notes: Ybr137wp, yeast, C-terminal residues 171-179; also called Ybr137wp-derived peptide; source: synthetic peptide, bought: Alpha BioScience (Birmingham, UK)
Kd (Sgt2_TPR (93–229)): 1530 ± 50 nM | dH (Sgt2_TPR (93–229)): -7.07 ± 0.99 kcal/mol

B3: PTVEEVD peptide (C-terminus of Ssa1) (peptide)
peptide: PTVEEVD
notes: Heat shock protein Ssa1 (yeast Hsp70), last seven amino acids; printed as residues 634-640; also called C-terminal peptide of Ssa1; Ssa1 derived PTVEEVD peptide; source: synthetic peptide, bought: Alpha BioScience (Birmingham, UK)
Kd (Sgt2_TPR (93–229)): 9040 ± 50 nM | dH (Sgt2_TPR (93–229)): -6.72 ± 0.07 kcal/mol
